Assay results reported in US8771644B2, “Imaging probes” (Sanofi, priority 2007, dated 2014).

Tests used:
Format in all cases: biochemical
[1] = substrate: CN(C)c1ccc(/N=N/c2ccc(C(=O)NCCCC[C@H](NC(=O)[C@H](CCC(=O)NCCNc3cccc4c(S(=O)(=O)O)cccc34)NC(=O)[C@H](CC3CCCCC3)NC(=O)N3CCOCC3)C(=O)O)cc2)cc1; experiment: in vitro activity assay (fluorescence, substrate cleavage) with Cath S; settings: other: Cath S, measurement performed at pH 7.5, 37.0 °C
[2] = substrate: CN(C)c1ccc(/N=N/c2ccc(C(=O)NCCCC[C@H](NC(=O)[C@H](CCC(=O)NCCNc3cccc4c(S(=O)(=O)O)cccc34)NC(=O)[C@H](CC3CCCCC3)NC(=O)N3CCOCC3)C(=O)O)cc2)cc1; experiment: in vitro activity assay (fluorescence, substrate cleavage) with Papain; settings: other: Papain; measurement performed at pH 7.5; pH 7.5; 37.0 °C
Experimental: (§1) […] The substrates were solved in DMSO and added to enzyme solution with a final concentration of 50 μM.
(§2) Fluorescence was measured with an Tecan SAFIRE II spectrometer (excitation wavelength: 336 nm; emission wavelength: 490 nm; excitation band: 10.0 nm; emission band: 10.0 nm; amplification (manual): 90).

[3] = substrate: CN(C)c1ccc2c(c1)Oc1cc(N(C)C)ccc1C21OC(=O)c2cc(C(=O)NCC[C@H](NC(=O)[C@H](CC3CCCCC3)NC(=O)N3CCOCC3)C(=O)NCCNC(=O)c3ccc(-c4c5ccc(=O)cc-5oc5cc(O)ccc45)c(C(=O)O)c3)ccc21; experiment: as above; settings: other: Papain; measurement performed at pH 5.5; pH 5.5; 37.0 °C
Experimental: as §1, §2

[4] = substrate: CN(C)c1ccc(/N=N/c2ccc(C(=O)NCCCC[C@H](NC(=O)[C@H](CCC(=O)NCCNc3cccc4c(S(=O)(=O)O)cccc34)NC(=O)[C@H](CC3CCCCC3)NC(=O)N3CCOCC3)C(=O)O)cc2)cc1; experiment: in vitro activity assay (fluorescence, substrate cleavage) with Cath K; settings: other: Cath K; measurement performed at pH 7.5; pH 7.5; 37.0 °C
Experimental: as §1, §2

[5] = substrate: CN(C)c1ccc2c(c1)Oc1cc(N(C)C)ccc1C21OC(=O)c2cc(C(=O)NCC[C@H](NC(=O)[C@H](CC3CCCCC3)NC(=O)N3CCOCC3)C(=O)NCCNC(=O)c3ccc(-c4c5ccc(=O)cc-5oc5cc(O)ccc45)c(C(=O)O)c3)ccc21; experiment: as above; settings: other: Cath K; measurement performed at pH 5.5; pH 5.5; 37.0 °C
Experimental: as §1, §2

B1: Cath S (Homo sapiens) (protein)
chain: LPDSVDWREKGCVTEVKYQGSCGACWAFSAVGALEAQLKLKTGKLVSLSAQNLVDCSTEKYGNKGCNGGFMTTAFQYIIDNKGIDSDASYPYKAMDQKCQYDSKYRAATCSKYTELPYGREDVLKEAVANKGPVSVGVDARHPSFFLYRSGVYYEPSCTQNVNHGVLVVGYGDLNGKEYWLVKNSWGHNFGEEGYIRMARNKGNHCGIASFPSYPEI
Question: Which Km [1] does the source give for B1 here?
Answer: 32 µM

Question: What about the Vmax [1] of the same protein?
Answer: 0.144 µmol/min

Question: What about the kcat [1] of the same protein?
Answer: 0.11 s⁻¹

Question: And the kcat/Km [1]?
Answer: 3260 M⁻¹ s⁻¹

B2: Papain (Carica papaya) (protein)
chain: IPEYVDWRQKGAVTPVKNQGSCGSCWAFSAVVTIEGIIKIRTGNLNEYSEQELLDCDRRSYGCNGGYPWSALQLVAQYGIHYRNTYPYEGVQRYCRSREKGPYAAKTDGVRQVQPYNEGALLYSIANQPVSVVLEAAGKDFQLYRGGIFVGPCGNKVDHAVAAVGYGPNYILIKNSWGTGWGENGYIRIKRGTGNSYGVCGLYTSSFYPVKN
Question: B2 was tested. Which Km [2] did it give?
Answer: 520 µM

Question: What about the Vmax [2] of the same protein?
Answer: 0.096 µmol/min

Question: And the kcat [2]?
Answer: 0.1 s⁻¹

Question: What about the kcat/Km [2] of the same protein?
Answer: 273 M⁻¹ s⁻¹

Question: And the Km [3]?
Answer: 6.3 µM

Question: And the Vmax [3]?
Answer: 0.0024 µmol/min

Question: And the kcat [3]?
Answer: 0.002 s⁻¹

B3: Cath K (Homo sapiens) (protein)
chain: APDSVDYRKKGYVTPVKNQGQCGSCWAFSSVGALEGQLKKKTGKLLNLSPQNLVDCVSENDGCGGGYMTNAFQYVQKNRGIDSEDAYPYVGQEESCMYNPTGKAAKCRGYREIPEGNEKALKRAVARVGPVSVAIDASLTSFQFYSKGVYYDESCNSDNLNHAVLAVGYGIQKGNKHWIIKNSWGENWGNKGYILMARNKNNACGIANLASFPKM
Question: B3 was tested. Which Km [4] did it give?
Answer: 190 µM

Question: What about the Vmax [4] of the same protein?
Answer: 0.018 µmol/min

Question: And the kcat/Km [4]?
Answer: 27 M⁻¹ s⁻¹

Question: What about the Km [5] of the same protein?
Answer: 35 µM

Question: What about the Vmax [5] of the same protein?
Answer: 0.438 µmol/min

Question: What about the kcat [5] of the same protein?
Answer: 0.192 s⁻¹
